Assay results: the supplement of paper PMC9876800

Test system: peptide library, one residue held at a place counted from the S/T acceptor
Assay: relative phosphorylation of the sub-library (ratio to the mean residue at this position); higher = residue favoured
Details: human
In short: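 Purified recombinant kinases were reacted in 384-well plates with biotinylated degenerate peptide sub-libraries, each having one residue fixed at one position around a central Ser/Thr. The reaction mix contained 50 μM peptide plus 50 μM ATP spiked with γ-32P-ATP and ran for 90 min under kinase-specific conditions. Relative sub-library phosphorylation, taken from densitometry of phosphorimaged streptavidin membrane spots, is a ratio to the mean residue at that position.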

CAMK1D, construct: Full length, sequence (Q8IU85 whole entry, looked up): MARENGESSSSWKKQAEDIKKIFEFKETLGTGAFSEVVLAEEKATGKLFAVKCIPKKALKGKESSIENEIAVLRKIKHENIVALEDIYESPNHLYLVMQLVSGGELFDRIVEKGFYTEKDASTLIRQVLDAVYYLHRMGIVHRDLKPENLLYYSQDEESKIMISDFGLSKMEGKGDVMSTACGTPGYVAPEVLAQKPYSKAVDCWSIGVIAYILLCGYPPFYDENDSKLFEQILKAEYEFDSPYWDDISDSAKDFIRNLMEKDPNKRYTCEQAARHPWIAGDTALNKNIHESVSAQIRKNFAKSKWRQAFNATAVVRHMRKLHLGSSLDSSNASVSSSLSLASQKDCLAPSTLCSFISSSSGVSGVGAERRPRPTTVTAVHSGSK
CAMKK1, construct: aa124-411, sequence (Q8N5S9 124-411, looked up): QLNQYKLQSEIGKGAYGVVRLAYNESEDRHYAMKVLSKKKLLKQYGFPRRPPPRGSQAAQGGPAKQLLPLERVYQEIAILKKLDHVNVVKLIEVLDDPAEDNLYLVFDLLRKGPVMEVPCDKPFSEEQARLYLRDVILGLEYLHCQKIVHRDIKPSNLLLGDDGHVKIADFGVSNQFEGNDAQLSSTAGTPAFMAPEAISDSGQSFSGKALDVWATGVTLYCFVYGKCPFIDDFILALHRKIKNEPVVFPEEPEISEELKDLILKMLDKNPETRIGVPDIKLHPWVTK

CAMK1D, construct: Full length (from UniProt Q8IU85)
relative phosphorylation
Details	at +1	at +2	at +3	at +4	at -1	at -2	at -3	at -4	at -5
A fixed	0.771	0.831	0.729	0.681	0.791	0.914	0.52	0.782	0.533
D fixed	0.658	1.06	1.35	0.996	0.975	0.373	0.154	0.438	0.269
E fixed	0.811	1.22	1.15	0.974	0.646	0.504	0.22	0.784	0.252
F fixed	1.75	1.14	1.17	1.39	0.597	0.446	0.631	0.724	1.38
G fixed	0.761	0.625	0.956	0.822	0.793	0.772	0.287	0.698	0.564
H fixed	1.03	1.47	1.34	0.936	1.35	0.962	0.964	0.955	0.787
I fixed	0.665	0.881	0.722	1.35	0.475	0.37	0.132	0.815	1.31
K fixed	1.26	0.591	0.717	0.675	1.9	1.95	2.7	2.58	0.999
L fixed	0.744	1.06	0.892	1.39	0.759	0.526	0.164	0.886	2.33
M fixed	1.01	0.846	0.854	1.51	0.824	1.09	0.238	0.995	1.35
N fixed	1.29	1.3	1.44	1.01	1.85	0.965	0.414	0.923	0.594
P fixed	0.237	0.753	0.786	1.12	1.41	0.311	0.389	0.63	1.19
Q fixed	1.68	1.14	1.07	0.969	1.28	2.08	0.63	1.06	0.905
R fixed	1.62	0.7	0.785	0.616	1.5	3.51	8.75	2.35	1.85
V fixed	0.747	0.736	0.627	0.746	0.523	0.448	0.153	0.883	0.752
W fixed	0.971	1.3	1.34	0.973	0.486	1.13	0.395	0.706	0.977
Y fixed	0.988	1.35	1.07	0.833	0.834	0.656	0.263	0.789	0.961
pThr fixed	0.967	0.874	0.756	1.2	0.312	0.312	0.221	0.486	0.375
pTyr fixed	0.844	2.75	1.25	0.949	0.739	0.291	0.205	0.431	0.739

CAMK4, construct: Full length (from UniProt Q16566)
relative phosphorylation
Details	at +1	at +2	at +3	at +4	at -1	at -2	at -3	at -4	at -5
A fixed	0.518	0.587	0.723	0.805	0.66	0.761	0.61	0.815	0.598
D fixed	0.574	0.588	0.925	0.978	0.92	0.327	0.27	0.479	0.347
E fixed	0.727	0.483	0.846	0.999	0.722	0.386	0.404	0.705	0.364
F fixed	3.32	0.95	1.12	1	1.02	0.667	0.559	1.01	1.75
G fixed	0.745	0.525	0.905	0.847	0.692	0.573	0.566	0.861	0.631
H fixed	0.86	1.99	1.19	1.08	1.18	1.3	1.32	1.17	0.781
I fixed	0.95	1.24	0.874	0.837	0.711	0.484	0.449	0.865	1.22
K fixed	0.738	0.848	0.896	0.942	1.35	2.46	2.9	1.67	1.02
L fixed	0.822	1.25	1.04	1.06	1.05	0.547	0.432	1.01	1.85
M fixed	1.23	1.15	1	0.978	0.99	0.783	0.671	1.17	1.3
N fixed	0.977	1.08	1.21	1.14	1.36	1.06	0.723	0.962	0.651
P fixed	0.167	0.652	0.919	1.24	1.09	0.38	0.706	0.642	0.827
Q fixed	1.12	0.862	0.904	1.17	1.21	1.34	0.854	0.951	0.755
R fixed	0.929	1.24	0.977	1.04	1.27	3.93	4.59	1.73	1.48
V fixed	0.815	1.08	0.8	0.739	0.744	0.501	0.408	0.938	0.98
W fixed	1.25	1.16	1.39	1.12	0.93	0.744	0.841	0.949	1.1
Y fixed	1.26	1.33	1.27	1.03	1.1	0.756	0.695	1.09	1.35
pThr fixed	0.934	0.905	0.892	1.02	0.56	0.621	0.672	0.718	0.63
pTyr fixed	0.811	0.793	0.936	0.824	1.09	0.424	0.482	0.653	0.661

CAMKK1, construct: aa124-411 (from UniProt Q8N5S9)
relative phosphorylation
Details	at +1	at +2	at +3	at +4	at -1	at -2	at -3	at -4	at -5
A fixed	0.901	0.973	0.903	0.897	1.05	0.46	1.22	1.1	1.33
D fixed	0.614	0.968	0.958	1.06	1.05	0.445	0.426	1.26	1.18
E fixed	0.644	0.723	0.891	1.05	1.31	0.348	0.461	1.18	1.06
F fixed	0.858	0.802	0.751	0.774	0.629	1.59	1.36	1.02	0.853
G fixed	0.83	0.897	1.14	1.2	0.7	0.458	0.757	1.18	1.32
H fixed	1.31	1.44	1.24	1.12	1.06	0.949	1.12	1.06	1.05
I fixed	1.06	0.725	0.597	0.612	0.645	0.756	1.18	0.675	0.687
K fixed	0.907	0.997	1.27	1.18	1.05	0.463	0.443	0.806	1.18
L fixed	1.12	0.703	0.657	0.76	1.14	2.71	1.29	0.811	0.605
M fixed	1.37	0.901	0.797	0.845	1.27	2.52	2.16	0.82	0.901
N fixed	1.21	1.11	1.2	1.25	1.21	0.811	0.832	1.03	1.04
P fixed	0.157	0.927	1.2	1.29	0.192	0.229	1.05	0.96	1.21
Q fixed	1.33	1.08	1.15	1.14	1.51	0.696	0.872	0.955	0.863
R fixed	1.31	1.57	1.49	1.23	1.75	0.633	0.583	0.791	1.13
V fixed	1.06	0.865	0.702	0.628	0.696	0.594	1.04	0.83	0.786
W fixed	1.01	0.968	0.975	1.13	0.718	0.668	1.03	1.59	0.906
Y fixed	1.31	1.36	1.08	0.848	1.02	2.67	1.18	0.926	0.903
pThr fixed	0.793	0.982	0.885	0.852	0.508	0.624	0.842	0.969	0.9
pTyr fixed	0.907	0.947	1.01	0.925	1.28	0.668	0.726	0.838	0.979
